According to patent US7959916B2, “Negative immunomodulation of immune responses by ERp5” (Fred Hutchinson Cancer Research Center, priority 2007, dated 2011):

What was measured:
[1] = system: sMICA shedding by Hela and A375 cells; test: sMICA shedding by tumor cell lines (ELISA for sMICA)
[2] = system: surface expression of MICA; test: MICA surface expression on tumor cell lines (flow cytometry); settings: tumor lines exposed to DTNB or PAO at titered non-toxic concentrations
[3] = system: Siderocalin and CD94-NKG2A; test: ERp5 activity assay on control proteins; type: biochemical; settings: Siderocalin (intrachain) and CD94-NKG2A (intrachain and interchain) disulfide bonds
[4] = target: T1, MICA (Homo sapiens, UniProt Q29983); test: ERp5 activity assay on MICA substrates (non-reducing SDS-PAGE); type: biochemical; settings: isolated α1α2 platform (residues 1-180)
T1 sequence (Q29983 24-203): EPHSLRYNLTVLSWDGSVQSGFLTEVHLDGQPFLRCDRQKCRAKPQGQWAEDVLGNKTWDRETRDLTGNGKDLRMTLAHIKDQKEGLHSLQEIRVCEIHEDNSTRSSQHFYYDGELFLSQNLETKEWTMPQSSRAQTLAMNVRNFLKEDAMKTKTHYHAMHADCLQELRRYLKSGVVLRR

[5] = target: T2, MICA (Homo sapiens, UniProt Q29983); test: as above; type: biochemical; settings: ectodomain MICA, RT, no reducing agents
T2 sequence (Q29983 24-299): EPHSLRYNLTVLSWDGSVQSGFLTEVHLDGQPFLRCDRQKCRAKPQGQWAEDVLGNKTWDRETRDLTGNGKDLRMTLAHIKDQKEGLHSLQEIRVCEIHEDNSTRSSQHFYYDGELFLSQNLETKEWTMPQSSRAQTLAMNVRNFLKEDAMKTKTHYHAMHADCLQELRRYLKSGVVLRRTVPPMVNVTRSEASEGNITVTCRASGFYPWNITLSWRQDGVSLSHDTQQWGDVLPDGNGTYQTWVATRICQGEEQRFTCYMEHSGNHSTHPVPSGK

[6] = system: mDC and allogeneic T cells; test: Mixed-lymphocyte reaction, alloantigen presentation by mDC ([3H]thymidine incorporation); type: cell-based; settings: MLR, soluble MICA 10 ng/ml, 72 h
Protocol: mDC were matured using standard cytokine cocktail (Il-1β, IL-6, TNFα, and PGE2) in the additional presence or absence of soluble MICA (10 ng/ml). Mature mDC were harvested after 24 to 48 hours and processed for standard flow cytometry of CD80 and CD83 expression. For IL-6 secretion assays, 24 hour cytokine-matured mDC were washed, mixed with irradiated C1R-Neo (control), C1R-MICA or C1R-ULBP1 cells at a ratio of 2:1 and plated at 50,000 (experiment 1 and 2) or 200,000 mDC (experiment 3 and 4) per round-bottom 96-well in 200 μl AIM-V media with LPS (10 μg/ml). IL-6 contents in culture supernatants were measured by standard ELISA. The ability of mature mDC to present alloantigen in the presence or absence of soluble MICA was studied using standard mixed-lymphocyte reaction (MLR). Irradiated (3000 Rad) cytokine-matured mDC and allogeneic T cells were plated at various ratios (X-axis of bottom bar graph) with or without soluble MICA (10 ng/ml AIM-V) in round-bottom 96-well plates. After 72 hours, cells in wells were labeled with [^3H]thymidine for 24 hours and harvested for counting of incorporated radioactivity.

[7] = system: PHA (or anti-CD3)-activated CD4 T cells; test: Cytokine production by activated CD4 T cells (17 multiplex cytokine analysis); type: cell-based; settings: soluble MICA 10 ng/ml, 24 hour supernatants
Protocol: Total PBMC from healthy donors were cultured for 48 hours with PHA (1 μg/ml) or on solid-phase anti-CD3 (25 ng/ml) and stained for standard three-color flow cytometry using combinations of directly conjugated anti-CD3, -CD4 and -CD8 mAbs followed by anti-ERp5 and PE-goat anti-rabbit Ig. For cytokine analyses, bulk NKG2D^+ and NKG2D^− T cell populations purified by magnetic sorting were plated on solid-phase monoclonal antibodies with or without soluble MICA (10 ng/ml). 24 hour culture supernatants were screened by 17 multiplex cytokine analysis.

[8] = system: monocyte derived dendritic cells (mDC); test: Maturation marker expression on monocyte-derived dendritic cells (flow cytometry); type: cell-based; settings: mDC matured with cytokine cocktail, soluble MICA 10 ng/ml
Protocol: Monocytes were enriched from normal peripheral blood mononuclear cells (PBMC) by plastic adherence and cultured under standard conditions in the presence of IL-4 and GM-CSF. Cells were harvested at 6 hour-intervals and stained with fluorescein isothiocyanate (FITC)-anti-CD83 or FITC-HLA-DR followed by saturating phycoerythrin (PE)-MICA tetramer concentrations or polyclonal rabbit anti-ERp5 and PE-goat anti-rabbit Ig. On day 6 of culture with IL-4/GM-CSF, mDC were matured (IL-1β, IL-6, TNFα, and PGE2) and MICA tetramer staining and Erp5 expression monitored for an additional 3 days. MICA tetramer was produced by ectodomain MICA protein expression in transfected 293T cells, protein purification from culture supernatant using Invitrogen technology, and BirA enzymatic biotinylation and conjugation with PE-streptavidin.
mDC were matured using standard cytokine cocktail (Il-1β, IL-6, TNFα, and PGE2) in the additional presence or absence of soluble MICA (10 ng/ml). Mature mDC were harvested after 24 to 48 hours and processed for standard flow cytometry of CD80 and CD83 expression. […] IL-6 contents in culture supernatants were measured by standard ELISA. […] After 72 hours, cells in wells were labeled with [^3H]thymidine for 24 hours and harvested for counting of incorporated radioactivity.

[9] = target: T3, ERp5 (Homo sapiens, UniProt Q15084); test: MICA tetramer binding to NKG2D-negative tumor cells (flow cytometry); settings: U266, Hela, HCT116, Lovo and A375 cells, competition with unglycosylated protein
T3 sequence (Q15084 20-440): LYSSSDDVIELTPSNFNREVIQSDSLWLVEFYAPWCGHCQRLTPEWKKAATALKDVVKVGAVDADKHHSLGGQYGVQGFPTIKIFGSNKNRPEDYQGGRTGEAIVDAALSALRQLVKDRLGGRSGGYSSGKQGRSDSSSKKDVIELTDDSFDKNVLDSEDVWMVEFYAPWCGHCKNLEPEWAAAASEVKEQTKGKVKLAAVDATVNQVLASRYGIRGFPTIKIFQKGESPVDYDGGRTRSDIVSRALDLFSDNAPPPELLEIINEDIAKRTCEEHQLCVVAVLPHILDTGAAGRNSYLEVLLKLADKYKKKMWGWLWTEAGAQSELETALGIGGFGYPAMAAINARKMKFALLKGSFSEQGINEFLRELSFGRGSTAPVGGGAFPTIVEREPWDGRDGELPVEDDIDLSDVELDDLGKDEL

[10] = target: T4, MICA (Homo sapiens, UniProt Q29983); test: ERp5 activity assay on MICA substrates (non-reducing SDS-PAGE); type: biochemical; settings: isolated α3 domain (residues 187-274)
T4 sequence (Q29983 210-297): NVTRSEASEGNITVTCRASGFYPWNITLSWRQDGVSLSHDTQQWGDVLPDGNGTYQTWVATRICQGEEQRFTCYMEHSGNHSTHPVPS

[11] = system: ERp5-MICA complexes; test: Capturing of ERp5-MICA complexes by co-immunoprecipitation from TCA-treated Hela cells; type: cell-based; settings: Hela cells grown 16 h with increasing concentrations
Excerpt: Immunoprecipitations and sMICA cleavage.

## O=C(O)c1cc(SSc2ccc([N+](=O)[O-])c(C(=O)O)c2)ccc1[N+](=O)[O-] [DTNB, 5,5-dithiobis-(2-nitrobenzoic acid), reference compound]
[1]; Hela and A375 cells, 24 h exposure, ELISA, dose-dependent
  shedding of sMICA: reduce shedding of sMICA
[2]
  surface expression of MICA: without affecting surface expression of MICA

## ERp5: recombinant ERp5 (residues 1-421 of the mature protein) produced in bacteria
[3]
  reduction of unrelated proteins: did not affect
[4]
  activity on MICA α1α2 domain: no activity
[5]
  reduction of MICA disulfide bond: gradual reduction of MICA

B1: soluble MICA: soluble form of MHC class I-related chain A, NKG2D ligand binding ERp5 (protein)
chain: EPHSLRYNLTVLSWDGSVQSGFLTEVHLDGQPFLRCDRQKCRAKPQGQWAEDVLGNKTWDRETRDLTGNGKDLRMTLAHIKDQKEGLHSLQEIRVCEIHEDNSTRSSQHFYYDGELFLSQNLETKEWTMPQSSRAQTLAMNVRNFLKEDAMKTKTHYHAMHADCLQELRRYLKSGVVLRRTVPPMVNVTRSEASEGNITVTCRASGFYPWNITLSWRQDGVSLSHDTQQWGDVLPDGNGTYQTWVATRICQGEEQRFTCYMEHSGNHSTHPVPSGK
[6]
  ability of mDC to present alloantigen and stimulate T cells: reduced ability to present alloantigen and stimulate T cells
[7]; NKG2D-CD4+ T cells
  amounts of IL-1β, IL-17, G-CSF and MCP1: increased amounts
[7]; activated NKG2D+CD4+ T cells
  amounts of IL-1β, IL-17, G-CSF and MCP1: vastly increased
[8]
  expression of DC maturation markers (CD83; CD80): diminished

B2: rMICA: Non-glycosylated recombinant MICA expressed in bacteria (protein)
chain: EPHSLRYNLTVLSWDGSVQSGFLTEVHLDGQPFLRCDRQKCRAKPQGQWAEDVLGNKTWDRETRDLTGNGKDLRMTLAHIKDQKEGLHSLQEIRVCEIHEDNSTRSSQHFYYDGELFLSQNLETKEWTMPQSSRAQTLAMNVRNFLKEDAMKTKTHYHAMHADCLQELRRYLKSGVVLRRTVPPMVNVTRSEASEGNITVTCRASGFYPWNITLSWRQDGVSLSHDTQQWGDVLPDGNGTYQTWVATRICQGEEQRFTCYMEHSGNHSTHPVPSGK
[9]
  MICA tetramer binding to NKG2D- tumor cells: inhibited

B3: C36S: C36S mutant of ERp5 fragment 1-118 (protein)
chain: LYSSSDDVIELTPSNFNREVIQSDSLWLVEFYAPWSGHCQRLTPEWKKAATALKDVVKVGAVDADKHHSLGGQYGVQGFPTIKIFGSNKNRPEDYQGGRTGEAIVDAALSALRQLVKD
modifications: left off: small tags and cut ends
[5]
  reduction of MICA disulfide bond: no activity

B4: C39S: C39S mutant of ERp5 fragment 1-118 (protein)
chain: LYSSSDDVIELTPSNFNREVIQSDSLWLVEFYAPWCGHSQRLTPEWKKAATALKDVVKVGAVDADKHHSLGGQYGVQGFPTIKIFGSNKNRPEDYQGGRTGEAIVDAALSALRQLVKD
modifications: left off: small tags and cut ends
[5]
  reduction of MICA disulfide bond: formed a trapped disulfide-linked intermediate
[10]
  activity on MICA α3 domain: reduces the MICA α3 disulfide bond

B5: ERp51-118: recombinant N-terminal thioredoxin-like domain fragment of ERp5, residues 1-118 (protein)
chain: LYSSSDDVIELTPSNFNREVIQSDSLWLVEFYAPWCGHCQRLTPEWKKAATALKDVVKVGAVDADKHHSLGGQYGVQGFPTIKIFGSNKNRPEDYQGGRTGEAIVDAALSALRQLVKD
modifications: left off: small tags and cut ends
[5]
  reduction of MICA disulfide bond: partially reduced

B6: dRNase: Denatured and reduced RNase A, excess substrate shifting ERp5 equilibrium towards the reduced state (protein, UniProt P61823 27-150, looked up)
Ribonuclease pancreatic: KETAAAKFERQHMDSSTSAASSSNYCNQMMKSRNLTKDRCKPVNTFVHESLADVQAVCSQKNVACKNGQTNCYQSYSTMSITDCRETGSSKYPNCAYKTTQANKHIIVACEGNPYVPVHFDASV
modifications: denatured and reduced
notes: Denatured and reduced RNase A, excess substrate shifting ERp5 equilibrium towards the reduced state
[11]
  ERp5 co-immunoprecipitating with MICA, emergence of sMICA: larger amounts of ERp5 co-immunoprecipitating with MICA
[1]; Hela and A375 cell cultures treated with dRNase, 16 h
  sMICA shedding: promotes sMICA shedding

B7: native RNase: native RNase A used as control for dRNase (protein, UniProt P61823 27-150, looked up)
Ribonuclease pancreatic: KETAAAKFERQHMDSSTSAASSSNYCNQMMKSRNLTKDRCKPVNTFVHESLADVQAVCSQKNVACKNGQTNCYQSYSTMSITDCRETGSSKYPNCAYKTTQANKHIIVACEGNPYVPVHFDASV
[11]
  ERp5 co-immunoprecipitating with MICA, emergence of sMICA: None of those biochemical changes were observed
